Assays:
[1] = substrate: O=c1ccn([C@@H]2O[C@H](CO[P@@](=O)(O)O[P@@](=O)(O)O[C@H]3O[C@H](CO)[C@@H](O)[C@H](O)[C@H]3O)[C@@H](O)[C@H]2O)c(=O)[nH]1; experiment: anion-exchange HPLC of substrate consumption, Michaelis-Menten fit; type: biochemical, Trichomonas vaginalis; conditions: 50 mM Tris/HCl, 150 mM NaCl, pH 7.0, 25 °C, no added NAD(P)+ or bivalent cations needed
[2] = substrate: Cc1cn([C@H]2C[C@H](O)[C@@H](COP(=O)(O)OP(=O)(O)O[C@H]3O[C@H](CO)[C@@H](O)[C@H](O)[C@H]3O)O2)c(=O)[nH]c1=O; experiment: as above; type: biochemical, Trichomonas vaginalis; conditions: 50 mM Tris/HCl, 150 mM NaCl, pH 7.0, 25 °C, no added NAD(P)+ or bivalent cations needed
[3] = molecular target: the molecule itself; experiment: SEC; size-exclusion chromatography of the purified protein on a TSK-gel 3000 column, as described in ref. 23; molecular weight calculated from the elution time

B1: UDP-D-glucose 4,6-dehydratase from Trichomonas vaginalis (TvUGD, TVAG_414560) (enzyme, Trichomonas vaginalis (strain G3), UniProt A2GEF2 1-348, looked up)
chain: MSEDYQPHVILLTGGAGFIGSHVCNHLVLKYPDVKIICLDVMDYCANLRNLEEIMNKPNFLFIKGSINNVELVSYIMKTHAVDTVMHFAAQSHVDRSFGNSLEFTHTNILGTHVLLECAKQNNIKRFIHVSTDEVYGEVLSGCAEEEKSILCPTNPYACSKAGAEFMCQAYIRSFNMPIIITRGNNVFGPKQFPEKVIPKFTLLLKAGHKCCIHGDGSALRNFLHTSDVVQAFDTILHKGKLHQIYNIGTDFEISVLEMTKKLIKVLNMPGKPEDWIEFVPDRAFNDSRYMINSSKLIALGWHANTDFDTLLKETVQWYLDHMDYWKDRDINTYLSPHPIAYAPKTAE
notes: calculated monomer mass 39 kDa; Residues of the vector may remain after protease cleavage; also called TvGD; UDP-D-Glc 4,6-dehydratase; source: E. coli BL21, GST-fusion from pGEX-6P1, purified on GSH-sepharose 4B, GST removed by precision protease cleavage
[1]
  Km: 21.3 ± 3.4 µM
  kcat: 0.39 ± 0.01 s⁻¹
[2]
  Km: 362.8 ± 73.4 µM
  kcat: 0.36 ± 0.03 s⁻¹
[3]
  stoichiometry N: 2

Source: publication PMC9741107, “The L-Rhamnose Biosynthetic Pathway in Trichomonas vaginalis: Identification and Characterization of UDP-D-Glucose 4,6-dehydratase” (International Journal of Molecular Sciences, 2022)
